For this test, the target named is rKgp (Porphyromonas gingivalis) (UniProt Q51817). The experiment in a line: enzyme inhibition assay (chromogenic substrate).
Sequence of rKgp (Porphyromonas gingivalis) (Q51817 25-1732): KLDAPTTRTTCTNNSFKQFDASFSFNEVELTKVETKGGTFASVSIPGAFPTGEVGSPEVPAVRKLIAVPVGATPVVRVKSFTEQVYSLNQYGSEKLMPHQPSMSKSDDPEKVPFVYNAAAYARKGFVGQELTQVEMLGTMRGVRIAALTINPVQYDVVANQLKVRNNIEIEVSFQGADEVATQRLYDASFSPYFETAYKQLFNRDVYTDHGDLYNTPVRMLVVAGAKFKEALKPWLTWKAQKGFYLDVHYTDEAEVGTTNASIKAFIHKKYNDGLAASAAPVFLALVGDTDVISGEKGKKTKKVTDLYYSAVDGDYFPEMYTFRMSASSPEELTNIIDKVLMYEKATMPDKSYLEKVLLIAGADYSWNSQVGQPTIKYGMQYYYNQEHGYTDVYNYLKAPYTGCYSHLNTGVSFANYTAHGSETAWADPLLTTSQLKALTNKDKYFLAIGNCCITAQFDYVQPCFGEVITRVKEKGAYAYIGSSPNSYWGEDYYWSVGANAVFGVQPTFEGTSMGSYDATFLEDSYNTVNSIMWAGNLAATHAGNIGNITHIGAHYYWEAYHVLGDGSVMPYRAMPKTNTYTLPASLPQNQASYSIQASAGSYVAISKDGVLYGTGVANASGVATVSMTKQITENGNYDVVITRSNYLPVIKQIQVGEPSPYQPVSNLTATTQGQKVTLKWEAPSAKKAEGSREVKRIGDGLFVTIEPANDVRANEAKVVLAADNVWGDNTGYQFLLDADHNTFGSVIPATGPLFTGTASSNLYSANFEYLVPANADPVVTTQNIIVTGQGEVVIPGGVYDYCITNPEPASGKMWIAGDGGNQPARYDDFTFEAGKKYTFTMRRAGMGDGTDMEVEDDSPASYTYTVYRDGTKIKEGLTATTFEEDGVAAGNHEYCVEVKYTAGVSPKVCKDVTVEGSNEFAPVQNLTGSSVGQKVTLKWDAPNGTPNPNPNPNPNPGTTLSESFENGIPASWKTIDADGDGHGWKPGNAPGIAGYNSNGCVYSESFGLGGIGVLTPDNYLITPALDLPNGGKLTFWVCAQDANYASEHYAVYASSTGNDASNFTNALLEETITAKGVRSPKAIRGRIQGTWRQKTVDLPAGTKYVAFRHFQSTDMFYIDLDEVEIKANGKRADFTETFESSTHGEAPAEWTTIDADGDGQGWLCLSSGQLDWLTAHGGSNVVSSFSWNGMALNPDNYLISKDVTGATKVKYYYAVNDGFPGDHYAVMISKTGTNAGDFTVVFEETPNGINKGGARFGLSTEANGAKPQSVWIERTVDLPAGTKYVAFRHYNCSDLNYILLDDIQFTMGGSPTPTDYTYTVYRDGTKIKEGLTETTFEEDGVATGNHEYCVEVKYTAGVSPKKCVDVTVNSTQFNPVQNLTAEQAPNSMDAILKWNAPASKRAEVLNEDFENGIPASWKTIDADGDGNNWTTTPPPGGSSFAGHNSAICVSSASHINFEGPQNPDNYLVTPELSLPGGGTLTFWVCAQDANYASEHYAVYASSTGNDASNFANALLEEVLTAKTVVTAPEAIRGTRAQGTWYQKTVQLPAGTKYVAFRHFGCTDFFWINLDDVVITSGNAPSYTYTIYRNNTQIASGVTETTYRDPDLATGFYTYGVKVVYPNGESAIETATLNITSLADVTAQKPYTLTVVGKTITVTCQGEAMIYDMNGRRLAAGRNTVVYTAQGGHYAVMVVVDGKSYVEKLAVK

“recombinant Kgp propeptide (rKgp-PP) (from UniProt Q51817) (domain or fragment)”: the Ki turned out to be 37.5 µM.
Turning to “recombinant RgpB propeptide (rRgpB-PP) (from UniProt P95493 25-229) (domain or fragment)”, the IC50 was determined as 11 µM.

These data come from paper PMC10319874 (Scientific Reports, 2023).
